Measurements as given in patent publication US20250320281A1.

What was measured:
[1] = target: HIV-1 Env of pseudovirus isolate MGRM-G-009 (HIV-1); experiment: cell-based or functional assay
[2] = target: HIV-1 APV6 Env (pseudovirus) (HIV-1); experiment: cell-based or functional assay
[3] = target: HIV-1 Env of isolate MGRM-C-025 (HIV-1); experiment: cell-based or functional assay
[4] = target: HIV-1 Env of isolate MGRM-C-001 (HIV-1); experiment: cell-based or functional assay
[5] = target: HIV-1 MGRM-D-018 Env (pseudovirus) (HIV-1); experiment: cell-based or functional assay
[6] = target: HIV-1 MGRM-C-028 Env (pseudovirus) (HIV-1); experiment: cell-based or functional assay
[7] = target: HIV-1 MGRM-C-027 Env (pseudovirus) (HIV-1); experiment: cell-based or functional assay
[8] = target: envelope of aMLV pseudovirus (negative control); experiment: cell-based or functional assay
[9] = target: HIV-1 Env of pseudovirus isolate MGRM-G-006 (HIV-1); experiment: cell-based or functional assay
[10] = target: HIV-1 JRCSF Env (pseudovirus) (HIV-1) (UniProt P20871); experiment: cell-based or functional assay
[11] = target: HIV-1 MGRM-A-010 Env (pseudovirus) (HIV-1); experiment: cell-based or functional assay
[12] = target: HIV-1 92UG005 Env (pseudovirus) (HIV-1); experiment: cell-based or functional assay
[13] = target: HIV-1 Env of isolate MGRM-C-015 (HIV-1); experiment: cell-based or functional assay
[14] = target: HIV-1 Env of isolate MGRM-C-020 (HIV-1); experiment: cell-based or functional assay
[15] = target: HIV-1 Env of isolate MGRM-C-008 (HIV-1); experiment: cell-based or functional assay
[16] = target: HIV-1 Env of isolate MGRM-C-013 (HIV-1); experiment: cell-based or functional assay
[17] = target: HIV-1 NL43 Env (pseudovirus) (HIV-1); experiment: cell-based or functional assay
[18] = target: HIV-1 MGRM-C-026 Env (pseudovirus) (HIV-1); experiment: cell-based or functional assay
[19] = target: HIV-1 Env of isolate MGRM-C-023 (HIV-1); experiment: cell-based or functional assay
[20] = target: HIV-1 Env of isolate MGRM-C-002 (HIV-1); experiment: cell-based or functional assay
[21] = target: HIV-1 Env of isolate MGRM-C-022 (HIV-1); experiment: cell-based or functional assay
[22] = target: HIV-1 Env of isolate MGRM-C-005 (HIV-1); experiment: cell-based or functional assay
[23] = target: HIV-1 Env of isolate MGRM-C-024 (HIV-1); experiment: cell-based or functional assay
[24] = target: HIV-1 92UG024 Env (pseudovirus) (HIV-1); experiment: cell-based or functional assay
[25] = target: HIV-1 Env of pseudovirus isolate MGRM-G-013 (HIV-1); experiment: cell-based or functional assay
[26] = target: HIV-1 Env of isolate MGRM-C-006 (HIV-1); experiment: cell-based or functional assay
[27] = target: HIV-1 Env of pseudovirus isolate MGRM-G-015 (HIV-1); experiment: cell-based or functional assay
[28] = target: HIV-1 Env of isolate MGRM-C-009 (HIV-1); experiment: cell-based or functional assay
[29] = target: HIV-1 Env of isolate MGRM-C-007 (HIV-1); experiment: cell-based or functional assay
[30] = target: HIV-1 Env of pseudovirus isolate MGRM-G-016 (HIV-1); experiment: cell-based or functional assay
[31] = target: HIV-1 Env of pseudovirus isolate MGRM-G-004 (HIV-1); experiment: cell-based or functional assay
[32] = target: HIV-1 Env of pseudovirus isolate MGRM-G-019 (HIV-1); experiment: cell-based or functional assay
[33] = target: HIV-1 94UG103 Env (pseudovirus) (HIV-1); experiment: cell-based or functional assay
[34] = target: HIV-1 Env of isolate MGRM-C-012 (HIV-1); experiment: cell-based or functional assay
[35] = target: HIV-1 Env of isolate MGRM-C-019 (HIV-1); experiment: cell-based or functional assay
[36] = target: HIV-1 Env of pseudovirus isolate MGRM-G-014 (HIV-1); experiment: cell-based or functional assay
[37] = target: HIV-1 Env of isolate MGRM-C-010 (HIV-1); experiment: cell-based or functional assay
[38] = target: HIV-1 CMU02 Env (pseudovirus) (HIV-1); experiment: cell-based or functional assay
[39] = target: HIV-1 Env of isolate MGRM-C-017 (HIV-1); experiment: cell-based or functional assay
[40] = target: HIV-1 92TH021 Env (pseudovirus) (HIV-1); experiment: cell-based or functional assay
[41] = target: HIV-1 Env of pseudovirus isolate MGRM-G-027 (HIV-1); experiment: cell-based or functional assay
[42] = target: HIV-1 Env of pseudovirus isolate MGRM-G-001 (HIV-1); experiment: cell-based or functional assay
[43] = target: HIV-1 92RW020 Env (pseudovirus) (HIV-1); experiment: cell-based or functional assay
[44] = target: HIV-1 Env of isolate MGRM-C-004 (HIV-1); experiment: cell-based or functional assay
[45] = target: HIV-1 Env of isolate MGRM-C-014 (HIV-1); experiment: cell-based or functional assay
[46] = target: HIV-1 Env of pseudovirus isolate MGRM-G-011 (HIV-1); experiment: cell-based or functional assay
[47] = target: HIV-1 93IN905 Env (pseudovirus) (HIV-1); experiment: cell-based or functional assay
[48] = target: HIV-1 Env of pseudovirus isolate MGRM-G-017 (HIV-1); experiment: cell-based or functional assay
WT JR-FL gp120 (HIV-1) = experiment: ELISA, antigen-coated wells

Work on 5141_B17 (PGT-126) (antibody) yielded an IC50 (µg/mL), pseudovirus neutralization [1] of over 50 µg/mL, a neutralization IC50 (pseudovirus) [2] of 0.0249 mg/L and a neutralization IC50 [3] of 0.786 mg/L. The neutralization IC50 [4] was over 50 mg/L, the neutralization IC50 (pseudovirus) [5] was 0.0093 mg/L and the neutralization IC50 (pseudovirus) [6] was 0.283 mg/L. For the same substance, the neutralization IC50 (pseudovirus) [7] was 1.14 mg/L, the IC50 (µg/mL), pseudovirus neutralization [8] was over 50 µg/mL and the IC50 (µg/mL), pseudovirus neutralization [9] was over 50 µg/mL. It also gave a neutralization IC50 (pseudovirus) [10] of 0.0061 mg/L, a neutralization IC50 (pseudovirus) [11] of 0.0033 mg/L and a neutralization IC50 (pseudovirus) [12] of 0.0181 mg/L. For the same substance, the neutralization IC50 [13] was 3.14 mg/L, the neutralization IC50 [14] was over 50 mg/L and the neutralization IC50 [15] was 2.12 mg/L. The neutralization IC50 [16] was over 50 mg/L, the neutralization IC50 (pseudovirus) [17] was over 10 mg/L and the neutralization IC50 (pseudovirus) [18] was 0.0076 mg/L. It also gave a neutralization IC50 [19] of 0.065 mg/L, a neutralization IC50 [20] of 0.011 mg/L and a neutralization IC50 [21] of 0.96 mg/L. The neutralization IC50 [22] was 0.298 mg/L, the neutralization IC50 [23] was over 50 mg/L and the neutralization IC50 (pseudovirus) [24] was over 10 mg/L. For the same substance, the IC50 (µg/mL), pseudovirus neutralization [25] was 48.8 µg/mL, the neutralization IC50 [26] was 0.014 mg/L and the IC50 (µg/mL), pseudovirus neutralization [27] was over 50 µg/mL. The neutralization IC50 [28] was over 50 mg/L, the neutralization IC50 [29] was 25.3 mg/L and the IC50 (µg/mL), pseudovirus neutralization [30] was over 50 µg/mL. It also gave an IC50 (µg/mL), pseudovirus neutralization [31] of over 50 µg/mL, an IC50 (µg/mL), pseudovirus neutralization [32] of 0.018 µg/mL and a neutralization IC50 (pseudovirus) [33] of 0.0091 mg/L. It also gave a neutralization IC50 [34] of 0.111 mg/L, a neutralization IC50 [35] of 0.006 mg/L and an IC50 (µg/mL), pseudovirus neutralization [36] of 0.009 µg/mL. It also gave a neutralization IC50 [37] of over 50 mg/L, a neutralization IC50 (pseudovirus) [38] of over 10 mg/L and a neutralization IC50 [39] of 0.17 mg/L. The neutralization IC50 (pseudovirus) [40] was 0.115 mg/L, the IC50 (µg/mL), pseudovirus neutralization [41] was 0.875 µg/mL and the IC50 (µg/mL), pseudovirus neutralization [42] was 0.038 µg/mL. The neutralization IC50 (pseudovirus) [43] was 0.0046 mg/L, the neutralization IC50 [44] was 0.033 mg/L and the neutralization IC50 [45] was over 50 mg/L. It also gave an IC50 (µg/mL), pseudovirus neutralization [46] of 7.32 µg/mL, a neutralization IC50 (pseudovirus) [47] of 0.0194 mg/L and an IC50 (µg/mL), pseudovirus neutralization [48] of over 50 µg/mL. For the same substance, the EC50 (WT JR-FL gp120 (HIV-1)) was 0.1 mg/L.

For 5145_B14 (PGT-127) (antibody), the IC50 (µg/mL), pseudovirus neutralization [1] was over 50 µg/mL, the neutralization IC50 [3] was over 50 mg/L and the neutralization IC50 [4] was over 50 mg/L. For the same substance, the IC50 (µg/mL), pseudovirus neutralization [8] was over 50 µg/mL, the IC50 (µg/mL), pseudovirus neutralization [9] was over 50 µg/mL and the neutralization IC50 [13] was over 50 mg/L. For the same substance, the neutralization IC50 [14] was over 50 mg/L, the neutralization IC50 [15] was over 50 mg/L and the neutralization IC50 [16] was over 50 mg/L. The neutralization IC50 [19] was 1.08 mg/L, the neutralization IC50 [20] was 0.057 mg/L and the neutralization IC50 [21] was 0.41 mg/L. The neutralization IC50 [22] was 0.57 mg/L, the neutralization IC50 [23] was over 50 mg/L and the IC50 (µg/mL), pseudovirus neutralization [25] was 7.7 µg/mL. The neutralization IC50 [26] was 0.319 mg/L, the IC50 (µg/mL), pseudovirus neutralization [27] was over 50 µg/mL and the neutralization IC50 [28] was over 50 mg/L. The neutralization IC50 [29] was over 50 mg/L, the IC50 (µg/mL), pseudovirus neutralization [30] was over 50 µg/mL and the IC50 (µg/mL), pseudovirus neutralization [31] was over 50 µg/mL. The IC50 (µg/mL), pseudovirus neutralization [32] was 0.429 µg/mL, the neutralization IC50 [34] was 1.07 mg/L and the neutralization IC50 [35] was 0.017 mg/L. It also gave an IC50 (µg/mL), pseudovirus neutralization [36] of 0.009 µg/mL, a neutralization IC50 [37] of over 50 mg/L and a neutralization IC50 [39] of 3.4 mg/L. The IC50 (µg/mL), pseudovirus neutralization [41] was over 50 µg/mL, the IC50 (µg/mL), pseudovirus neutralization [42] was 0.113 µg/mL and the neutralization IC50 [44] was 0.532 mg/L. It also gave a neutralization IC50 [45] of over 50 mg/L, an IC50 (µg/mL), pseudovirus neutralization [46] of over 50 µg/mL and an IC50 (µg/mL), pseudovirus neutralization [48] of over 50 µg/mL. The EC50 (WT JR-FL gp120 (HIV-1)) was 0.1 mg/L.
